The values that follow are results of earlier work, collected in PMC8480781.

The target of series [1] is Lys66 (UniProt position 148, FTKKMKENAKK). The series can be described thus: potentiometry. The conditions noted are these: PHS V66K; state not stated.
In series [2] the target is Glu66 (UniProt position 148, FTKKMEENAKK). The series can be described thus: stability. The conditions noted are these: PHS V66E; state not stated.

Consider “Staphylococcal nuclease PHS V66K (Staphylococcus aureus; P117G;H124L;S128A;V66K)”, for which, in series [1], the pKa is recorded as 6.25–6.45.

With “Staphylococcal nuclease PHS V66E (Staphylococcus aureus; P117G;H124L;S128A;V66E)”, in series [2], the pKa is listed as 8.73–9.28.
